Assay results from article PMC5316886.

Molecular target: recombinant XIAP, I. scapularis (as used in the native gel, the plate-coated ELISA and the ubiquitylation assay) (I. scapularis)
Experiment: ELISA; 0.2 μg of XIAP coated on the plate (0.5 M carbonate-bicarbonate pH 9.5); increasing concentrations of Bendless, room temperature 1 hour; detected with α-UbcH13

concentration at saturation of binding: 9.1 µM
Substance: recombinant Bendless, I. scapularis (enzyme)
